The values that follow come from patent US20080139466A1.

The assay concerns the target human TSH receptor on stably transfected CHO cells (JP09 cells) (human) (UniProt P16473). As to the kind of experiment: cell-based or functional assay.
UniProt P16473, sequence (P16473 21-764): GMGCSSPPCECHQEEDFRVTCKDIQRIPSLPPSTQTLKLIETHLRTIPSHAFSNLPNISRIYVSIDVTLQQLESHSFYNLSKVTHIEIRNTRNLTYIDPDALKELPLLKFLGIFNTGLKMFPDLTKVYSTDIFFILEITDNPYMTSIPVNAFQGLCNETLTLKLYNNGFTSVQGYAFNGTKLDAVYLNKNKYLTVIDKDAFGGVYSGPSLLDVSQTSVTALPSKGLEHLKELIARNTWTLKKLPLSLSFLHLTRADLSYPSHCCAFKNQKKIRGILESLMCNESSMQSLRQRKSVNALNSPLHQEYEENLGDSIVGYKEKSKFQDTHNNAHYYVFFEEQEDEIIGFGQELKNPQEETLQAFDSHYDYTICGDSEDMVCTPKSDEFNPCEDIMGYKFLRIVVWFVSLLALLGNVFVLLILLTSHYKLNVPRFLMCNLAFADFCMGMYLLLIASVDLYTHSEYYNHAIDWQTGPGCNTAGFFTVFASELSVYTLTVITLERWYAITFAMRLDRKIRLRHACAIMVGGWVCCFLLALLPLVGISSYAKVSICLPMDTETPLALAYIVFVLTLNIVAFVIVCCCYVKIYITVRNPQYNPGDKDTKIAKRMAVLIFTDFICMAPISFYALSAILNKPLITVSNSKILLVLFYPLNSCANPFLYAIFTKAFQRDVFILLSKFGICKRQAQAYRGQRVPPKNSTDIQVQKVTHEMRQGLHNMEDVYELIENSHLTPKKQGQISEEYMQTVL

As to “feline thyrotropin yoked polypeptide (β-subunit-CTP-α-subunit) (ligand)”, the cAMP production (cAMP released into medium, RIA) by JP09 cells was found to be 70 pmol/mL.

As for “feline thyrotropin (fTSH) α/β heterodimer (from UniProt Q52R91 25-120; Q52R90 21-132) (ligand)”, the cAMP production (cAMP released into medium, RIA) by JP09 cells was determined as 25 pmol/mL.
